Test [1] has as its target Peptide N-YEPEA-C (SEQ ID NO: 11), residues Y136-A140 of full-length α-synuclein (Homo sapiens, UniProt P37840). Kind of test: Isothermal titration calorimetry (ITC) of NbSyn2 binding to C-terminal peptide fragment of α-synuclein. On the technique in general: ITC needs no label: the signal is the heat of the interaction.
Experimental: Calorimetric measurements were recorded using a MCS-ITC calorimeter (MicroCal, LLC, Northampton, Mass., USA). […] Both proteins were dialyzed prior to measurements in exactly the same buffer containing 10 mM phosphate, 150 mM sodium chloride at a pH of 7.4. Each injection was performed every four minutes at the desired temperature. […] The thermodynamic analysis was performed using the Microcal analysis software (Origin 7.0) with a 1:1 binding model. The temperature dependence of ΔH, allowed the calculation of ΔCp through the relationship ΔCp=δΔH/δT. The contribution of protonation to the ΔH was evaluated using a 10 mM Tris-HCL buffer 100 mM NaCl at pH 7.4.
Test [2] deals with EPEA (SEQ ID NO:1)-tagged Rev protein. The experiment in a line: In vivo detection of EPEA-tagged Rev in transfected HeLa cells by confocal microscopy. It counts as cell-based, HIV. As to conditions: nanobody fused to mKO1 or GFP, GYQDYEPEA and EPEA tags.
Text: In another set of experiments, we explored the use of the EPEA (SEQ ID NO:1) tag to detect/visualize the expression of recombinant proteins within a (living) eukaryotic cell. […] Cells that are double-transfected with Rev-[sequence] (SEQ ID NO:10) or Rev-[sequence]
The two different tags [sequence] (SEQ ID NO:2) and EPEA (SEQ ID NO:1) were C-terminal fused to Rev by PCR using Takara Ex Taq polymerase (TAKARA BIO INC).
HeLa, human epithelial cells were maintained using standard procedures until confluent in DMEM medium with 10% fetal calf serum. For transfection of plasmid DNA in HeLa, cells were harvested by a Trypsin/EDTA treatment, counted and plated onto glass bottom microwell dishes (MatTek corporation). Transfections were preformed according to manufacturer's manual: the 4×10^5 cells were seeded in a 35 mm dish. […]
Transfected HeLa cells were imaged with a laser scanning SP5 confocal microscope (Leica Microsystems) equipped with an AF 6000 microscope and an AOBS, using a HCX PL APO×63 (NA 1.2) water immersion objective magnification. GFP was monitored with the Ar laser using the 488-nm line for excitation, and emission was detected between 492 and 570 nm. mKusabira orange fluorescent protein (mKO) was imaged using the DPSS-561 nm laser for excitation, and emission was detected between 570 and 675 nm.

A word on the Kd: it is the constant that tells how readily two partners part at equilibrium. The low end stands for tighter binding, the high end for weaker binding.

For “NbSyn2: Nanobody that specifically binds to α-synuclein, 126 amino acids, SEQ ID NO:21”, the Kd turned out to be 240 ± 26 nM in test [1] (293.1 K), 190 ± 30 nM in test [1] (298.1 K), 460 ± 110 nM in test [1] (303.1 K) and 850 ± 130 nM in test [1] (310.1 K). In addition, in test [2], the “Recognition of tagged Rev in double-transfected cells (colocalization in the nucleus)” value is reported as “recognized in vivo”.
